The Kd is the equilibrium constant for the complex coming apart.

The results in this text go back to patent publication US20250345387A1, “CORONAVIRUS THERAPEUTICS AND TREATMENT METHODS” (priority 2020, published 2025).

Where no end group is shown, it is not given here. Side-chain parts run from the residue outwards. 4‑arm PEG 10 kDa = 10 kDa 4-armed polyethylene glycol

One test deals with T1, recombinant mouse Tie2Fc (mouse, UniProt Q02858 23-743).
T1 chain: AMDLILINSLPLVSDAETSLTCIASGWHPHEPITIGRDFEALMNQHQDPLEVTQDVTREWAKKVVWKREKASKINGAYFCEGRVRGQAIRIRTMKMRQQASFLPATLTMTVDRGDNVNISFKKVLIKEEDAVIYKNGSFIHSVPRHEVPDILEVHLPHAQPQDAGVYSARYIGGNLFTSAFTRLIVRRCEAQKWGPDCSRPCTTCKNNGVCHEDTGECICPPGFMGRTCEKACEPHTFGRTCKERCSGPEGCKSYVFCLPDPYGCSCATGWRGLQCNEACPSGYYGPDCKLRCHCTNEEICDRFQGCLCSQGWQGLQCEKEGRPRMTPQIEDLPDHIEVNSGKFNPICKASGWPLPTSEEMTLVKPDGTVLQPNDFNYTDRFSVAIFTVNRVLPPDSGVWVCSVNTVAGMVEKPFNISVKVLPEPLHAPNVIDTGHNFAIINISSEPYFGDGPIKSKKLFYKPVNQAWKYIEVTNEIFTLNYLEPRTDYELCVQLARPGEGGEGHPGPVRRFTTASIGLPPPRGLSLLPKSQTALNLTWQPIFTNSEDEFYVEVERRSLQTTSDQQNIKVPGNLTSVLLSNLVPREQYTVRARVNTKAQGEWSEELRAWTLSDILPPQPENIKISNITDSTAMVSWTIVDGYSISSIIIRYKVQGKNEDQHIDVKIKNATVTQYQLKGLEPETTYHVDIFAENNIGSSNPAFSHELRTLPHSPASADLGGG
The test can be described thus: tryptophan fluorescence spectroscopy.

A further test concerns the target T2, recombinant rat Tie2-FC (Rattus norvegicus, UniProt A0ABK0L6J5 19-740).
T2 chain: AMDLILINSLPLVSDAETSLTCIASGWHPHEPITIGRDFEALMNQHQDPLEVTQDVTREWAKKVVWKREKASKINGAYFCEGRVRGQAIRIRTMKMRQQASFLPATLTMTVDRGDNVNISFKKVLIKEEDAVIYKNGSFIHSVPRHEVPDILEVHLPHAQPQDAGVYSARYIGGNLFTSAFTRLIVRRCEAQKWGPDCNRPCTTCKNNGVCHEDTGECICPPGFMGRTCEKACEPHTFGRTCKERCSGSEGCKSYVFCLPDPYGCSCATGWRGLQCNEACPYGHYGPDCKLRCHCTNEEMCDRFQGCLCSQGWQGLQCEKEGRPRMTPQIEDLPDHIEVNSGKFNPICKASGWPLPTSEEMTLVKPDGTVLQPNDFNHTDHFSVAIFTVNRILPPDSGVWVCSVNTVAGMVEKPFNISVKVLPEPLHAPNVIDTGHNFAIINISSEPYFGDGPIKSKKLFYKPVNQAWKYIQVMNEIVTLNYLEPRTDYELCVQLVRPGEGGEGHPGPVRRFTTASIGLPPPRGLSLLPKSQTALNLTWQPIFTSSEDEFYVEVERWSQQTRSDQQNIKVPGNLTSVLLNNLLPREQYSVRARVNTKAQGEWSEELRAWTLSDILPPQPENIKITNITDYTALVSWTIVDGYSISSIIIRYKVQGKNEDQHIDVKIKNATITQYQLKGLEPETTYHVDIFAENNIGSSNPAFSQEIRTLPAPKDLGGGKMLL
The test can be described thus: tryptophan fluorescence spectroscopy.

Test [1] addresses T3, recombinant cynomolgus monkey Tie2-FC (Macaca fascicularis, UniProt G7PS68 23-748).
T3 chain: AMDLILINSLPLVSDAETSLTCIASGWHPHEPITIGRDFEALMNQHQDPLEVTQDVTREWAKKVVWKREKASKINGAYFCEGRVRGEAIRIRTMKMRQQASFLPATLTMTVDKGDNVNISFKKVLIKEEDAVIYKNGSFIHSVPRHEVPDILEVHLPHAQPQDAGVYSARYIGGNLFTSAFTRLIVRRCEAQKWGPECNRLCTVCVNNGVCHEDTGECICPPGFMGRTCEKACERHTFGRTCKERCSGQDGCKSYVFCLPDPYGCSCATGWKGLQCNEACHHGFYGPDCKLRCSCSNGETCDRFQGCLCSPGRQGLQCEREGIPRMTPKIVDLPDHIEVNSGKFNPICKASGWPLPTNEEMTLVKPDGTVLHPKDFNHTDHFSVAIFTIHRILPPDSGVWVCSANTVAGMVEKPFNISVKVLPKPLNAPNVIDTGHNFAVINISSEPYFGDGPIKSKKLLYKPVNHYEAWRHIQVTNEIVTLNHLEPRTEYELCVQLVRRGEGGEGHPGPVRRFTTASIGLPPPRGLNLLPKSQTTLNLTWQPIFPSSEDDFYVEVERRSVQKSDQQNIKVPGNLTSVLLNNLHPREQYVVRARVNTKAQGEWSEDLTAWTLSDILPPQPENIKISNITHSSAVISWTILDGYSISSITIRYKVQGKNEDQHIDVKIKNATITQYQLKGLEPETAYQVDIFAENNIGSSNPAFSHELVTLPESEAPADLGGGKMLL
Nature of the test: tryptophan fluorescence spectroscopy.

The target of a further test is T4, recombinant human Tie2Fc (human, UniProt Q02763 23-745).
T4 construct: Bought from R&D Systems; not shown: human IgG Fc
Nature of the test: tryptophan fluorescence spectroscopy in solution, non-linear regression one site specific binding. The source says: The specific signal was derived by subtraction of the fluorescence intensity generated by ligand alone from the receptor and ligand complex.
Ligand and receptor interaction. […] Data was compiled using SoftMax and analyzed using Prism.

The target of test [2] is human Tie2 receptor on human endothelial cells (HUVEC, HMVECtert) (human, UniProt Q02763 23-1124). The test can be described thus: cell-based or functional assay.

B1: MPA-Br (peptide)
peptide: HHHRHSF-OH
modifications: not fully specified (N-terminus); also: tetramer: four copies on (bromoacetimide)4-PEG10K
notes: Mpa is not an amino acid; also called mBr; AV-001
B1: the equilibrium dissociation constant (Kd) came to 6.82 nM with recombinant mouse Tie2Fc, 4.21 nM in the test with recombinant rat Tie2-FC, 0.0229 nM in test [1] and 2.62 nM in the test with recombinant human Tie2Fc. In test [2], the “relative magnitude of Tie2 activation in HMVECtert” value is approximately 3.3 fold.

B2: parental Vasculotide (peptide)
peptide: C([maleimide-4‑arm PEG 10 kDa])HHHRHSF
modifications: also: tetramer: four copies on 4-armed 10 kDa PEG, mixture of succinimide and thiazine ring products
notes: Manufactured by Bachem; also called VT; parental VT
On to B2, for which the Kd with recombinant mouse Tie2Fc was 35 nM.
